Data on 41 sequences can be found in the nanobody polyreactivity screen of Harvey et al. (2022).

The nature of the series: yeast display, Sf9 membrane polyspecificity reagent, FACS + sequencing; frameworks hold sequencing errors. In outline: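 Synthetic nanobody libraries on Saccharomyces cerevisiae BJ5465 were galactose-induced for 36–48 hours, stained 1 hour at 4 °C with 10% biotinylated, detergent-solubilized Sf9 membrane reagent and enriched on streptavidin microbeads. FACS then separated cells into low and high (top ~1%) gates by anti-HA (expression) and streptavidin (reagent binding) fluorescence. Genes were colony-PCR amplified, MiSeq 2 × 250 sequenced and CDR-length filtered. A clone's polyreactivity label is that of its gate of origin.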
With “QVQLQESGGGLVQAGGSLRLSCAASGNISSYYRMGWYRHAPGKEREFVATIAVGGTTNYADSVKGRFTISRDNAKNTVYLQMNSLKPEDTAVCFCAANCNQYTWFDYWGQGTQVPVSS”, the “polyreactivity (PSR sort gate)” value is listed as “low polyreactivity”.
For the sequence “QVQLQESGGGLVQAGGSLRLSCAASGNISVTGFMGWYRKAPGKERELVASIGIGGTTYYADSVKGRFSISRDNAKNTVYLQMNSLKPEDTAVYYCAARYLYYAYSYWGQGTQVTVSS”, the “polyreactivity (PSR sort gate)” value is “low polyreactivity”.
“QVQLQESGGGLVQAGGSLRLSCAASGNIVDADIMGWYRQAPGKERELVASITDGGSTNYADCVKGRFTISRDNAKNTVYLKMNSLKPEDTAVYYCAAIAYPDIPTYFDYDSEYFYWGQGTQVTVSS”: the “polyreactivity (PSR sort gate)” value is listed as “low polyreactivity”.
The result for “QVQLQESGGGLVQAGGSLRLSCAASGNIYDADIMGWYRQAPAKERELVTSITDGGSTNYADSVKGRFTISRDNAKNTVYLQMNSLKPEDTAVYYCAAIAYPDIPTSFDYNSDYSYWGQGTQVTVSS” reads “low polyreactivity”; that for “QVQLQESGGGLVQAGGSLRLSCAASGNIYDADIMGWYRQAPGKERELVTSITDGGSTNYADSVKGRFTISRDNAKNTVYLQMNSLKPEDTAVYYSAAIAYADIPTSFDYNSDYSYWGQGTQVTVSS”, “low polyreactivity”; that for “QVQLQESGGGLVQAGGSLRLSCAASGNIYEADIMGWYRQAPGKERELVTSITDGGSTNYADSVKGRFTISRDNAKNTVYLQMNSLKPEDTAVYYCAAIAYPDIPTSFDYNSDYSYWGQGTQVTVSS”, “low polyreactivity”.
Then “QVQLQESGGGLVQAGGSLRLSCAASGSIFDGFNMGWYRQAPGKEREFVAAISYGASTYYADSVKGRFTVSRDNAKNSVYLQMNILKPEDTAVYYCAVVPSDGNLFSYWGQGTQVTVSS”, with “low polyreactivity”; and “QVQLQESGGGLVQAGGSLRLSCAASGSIFDGFNMGWYRQAPGKEREFVAAISYGASTYYADSVKGRFTVSRDNAKNSVYLQMNSLKPEDTAVYYCAVYDELYHVLVYWGRGTQVTVSS”, with “low polyreactivity”; and “QVQLQESGGGLVQAGGSLRLSCAASGSIFKGVDMGLYRQAPAKEREFVATIGEGGNTYYADSVKGRFTISRDNAKNTVYLQMNSLKPEDTAVYFYAVVLGTSYRYTYWGQGTQVTVSS”, with “low polyreactivity”.
For “QVQLQESGGGLVQAGGSLRLSCAASGSIFVSVTMGWYRQAPGKERELVASIGRGSTTNHADSVKGRFTICRDNAKNIVYLLMNSLKPEDTAVYYCAALESYGKYHGYWGQGTQVTVSS”, the “polyreactivity (PSR sort gate)” value is given as “low polyreactivity”.
The result for “QVQLQESGGGLVQAGGSLRLSCAASGSIFYWPWMGWYRQAPGREREFVATITTGSNTYYADIMKGHLTISRDNARNTVYLQMKSLKPEDTAVYYCAVVGDGEIEHRYWGQGTQVTVSS” reads “high polyreactivity”; that for “QVQLQESGGGLVQAGGSLRLSCAASGSISAVGAMGWYRQAPGKEREFAASVNWGTNTNYADSVKGRFTISRDNAKNTLNLQMNSLKPEDTAVYYCAVQPDWETRHDYWGHGTQVTVSS”, “low polyreactivity”; that for “QVQLQESGGGLVQAGGSLRLSCAASGSISPYYDMGWYRQAPGKEREFVAGISGGAITYYADSVKGRFTISRDNAKNTVYLQMNSLKPEDTAVYYFAADTGVYQYHSYWGQGTQVTVSS”, “low polyreactivity”.
With “QVQLQESGGGLVQAGGSLRLSCAASGTIFTARFMGWYRQAPGKERELVATITDGGNTNHADSVKGRFTISRDNAKNTVYLHMNSLKPEDAAVYYCAAGEVDNDTLLYWGQGSQVTVSS”, the “polyreactivity (PSR sort gate)” value is reported as “low polyreactivity”.
The result for “QVQLQESGGGLVQAGGSLRLSCAASGTISDRAGMGWYRQAPAKNAIVANIDRGTNTNYADSVKGRFTISRDNAKNTVYLQMNSLKPEDTAVYNCAADGRYYIYLDYWGQGTQVTVSS” reads “low polyreactivity”; that for “QVQLQESGGGLVQAGGSLRLSCAASGTISQEDWKGRYRQAPGKEREFVAAIGLGSNTNYADSLKGRFTISRDNAKNSVYLQMNSLKPEDTAVYYCAVSVWQYSDHVYRGQGTQVTVSS”, “low polyreactivity”.
Then “QVQLQESGGGLVQAGGSLRLSCAASGTISVAAYMAWYRQAPGKEREYVASIGYGATTYYADSEKGTFTISRDNAKNTVYLQMNSLKPGDTAVYYCAVDRSPQYRYLYYWGQGTQVTVCS”, with “high polyreactivity”; and “QVQLQESGGGLVQAGGSLRLSCAASGTITVLYKMGWFRQAPGKEREFVASMNYGTSTYYADSVKGRFTVSRDSAKNTVYLQMNSLKPEDTAVYYCAAAYRWQDVYRYWGQGTQVTVSS”, with “low polyreactivity”.
On to “QVQLQESGGGLVQAGGSLRLSCAASGYIFPRIYMGWYRQAPGKEREFDAGISYDAITNYADSVKGRFTISLDNAKNTVYLQMNSLNPEYTAVYYCAVSYYGTPLVTYWGQGTQVTVSS”, for which the “polyreactivity (PSR sort gate)” value is on record as “high polyreactivity”.
On to “QVQLQESGGGLVQAGGSLRLSCAASGYIFVDYTMGWHRQAPGKERELVATINLGATSYYADSVKGRFTISRDNAKNTVYQQMNSLKPEDTAVYYCAVALQQVNYFPYWCQGTQVTVSS”, for which the “polyreactivity (PSR sort gate)” value is “low polyreactivity”.
The result for “QVQLQESGGGLVQAGGSLRLSCAASGYISAGRQMGWYRQAPGKEREFVATINGGATTNYADSVKGRFTISRDNAKNSVYLQMNSLKPEDTAVYYCAAVIWYVQDYTYWGQGAQVTVSS” reads “high polyreactivity”; that for “QVQLQESGGGLVQAGGSLRLSCAASGYISHADEMGWNRQAPGKEHELVASISNGGSTNYADSVKGRFTISRDNAKNTVYLQMNSLKSEDTGVYYCAAWTGQVDIHYYWGQGTQVPVSS”, “low polyreactivity”; that for “QVQLQESGGGLVQAGGSLRLSCAASGYISHADEMGWYRQAPGKEHELVASISNGGSTNYADSVKGRFTISRDNAKNTVYLQMNSLKSEDTAVYYCAAWTGQVDIHYYWGLGTQVTVSS”, “low polyreactivity”.
Turning to “QVQLQESGGGLVQAGGSLRLSCAASGYISHADEMGWYRQAPGKEHELVASISNGGSTNYADSVKGRFTISRDNAKNTVYLQRNSLKSEDTAVYYCAAWTGQVDIHYYWGQGTQVTVSS”, the “polyreactivity (PSR sort gate)” value is listed as “low polyreactivity”.
Take “QVQLQESGGGLVQAGGSLRLSCAASGYISQSSVMGWYRQAPGKEREFVASISYGATTYYADSVKGRYTISRDNAKDTVYLQTNSPKPEVTAVYYCAVCVKRGFSHRYWGQGTQVTVSS”: the “polyreactivity (PSR sort gate)” value is on record as “high polyreactivity”.
Regarding “QVQLQESGGGLVQAGGSLRLSCAASGYISTFSSEMGWYRQAPGKERELVASIAPGCTTSYADSVKGRFTISRDKAKNTVYLQMNILKPEDTAVYFCAVVYTVPASFGYWGQGTQVTVIS”, the “polyreactivity (PSR sort gate)” value is “high polyreactivity”.
Then “QVQLQESGGGLVQAGGSLRLSCAASSNNTTLDVMCWYRQAPGKEREFVASIGSGGITNYADSVKGRFTISRDNAKNTVYLQMNSLKPEDTAVYYCAVLNQAYTDLIYWGQGTQVTVSS”, with “high polyreactivity”; and “QVQLQESGGGLVQAGGSLRLSCAATGRTFRYNTMGWYRKATGKERELVARITWSGGSTYYADSVKGRFTISRDNAKNTVYLQMNSLKPEDTAVYYCAAVPILVYRWFQSYTGDYDYWGQGTQVTVSS”, with “low polyreactivity”; and “QVQLQESGGGLVQAGGSLRLSCEASGTIFKYYTMGWYRQAPGKEREFVAGINVGSTTNYADIVKGRFTISRDNAKNTVYLQMNSLKPEDTAVYYCAAYFIFLYYHDYWGLGTQVTVSS”, with “low polyreactivity”.
The result for “QVQLQESGGGLVQAGGSLRLSCSASGNISVTGVMGWYRQAPGKERELVPSIGIGGTTYYADSVKGRFSISRDNATITVYLQMNSLKPQDTAVYYCAARYLYYAYSYWGQGTQVTVSS” reads “low polyreactivity”; that for “QVQLQESGGGLVQAGGSLRMSCAASGSISSRDAMGLYRQAPGKEREFVATIASGTTTYYADSVKGSFTISRDNAENTVYLQTNSLKPEDTAVYYCAAPTIQIYPFYYWGQGTQVTVSS”, “high polyreactivity”; that for “QVQLQESGGGLVQAGGSLRPSCAASGSLSDGVPMGWYRQAPGEERELVATTVLGATTNYADSVKGRFTISRGNAKNTVYLQMNSLKPEETAVYYCAAPLRYDKGFSYWGQGTQVTVSS”, “low polyreactivity”.
For “QVQLQESGGGLVQAGGSLRQSYAASGYIFPSLAMGWYRQAPGKEREFVAAIGRGSTNNYADSLKGRFTISRDNEKNTAYQQMNSLKPEVTAVYYCAADASPLTRHLYWGQGTQVTVSS”, the “polyreactivity (PSR sort gate)” value was “low polyreactivity”.
Then “QVQLQESGGGLVQAGGSLRRSCAATGSIFYRLKMGWHRQATGKERELVATIDPGSNTYYADSVKGSFTMSRDNAKNTVYPQMYSLKPEDTAVYYCAVSAHWTIHYYYWGQGTQVTVSS”, with “high polyreactivity”.
Then “QVQLQESGGGLVQAGGSLSLSCAASGSISAVGAMGWYRKAPGKERELAASVNWCTNTNYADSVKGRFTISRDNAKNTLYLQMNSLKPEDTAVYYCAVLPDWETRHDYWGHGTQVTVSS”, with “low polyreactivity”.
In the case of “QVQLQESGGGLVQAGGSPRLSCAASGTITRQYYMGWYRQAPGKERGFVAGIKSGSTTYYADNVKGCFTISRDNAKNAAYLQMNSLKPEDTAVYYCAIRPSYTIPYWYWGQGTQVTVSS”, the “polyreactivity (PSR sort gate)” value was “high polyreactivity”.
The result for “QVQLQESGGGLVQAGGSPRLSCAESDNIYPDSVICWYRQAPGKERELVATIGFGATTNYADSVKGRLTISRDNAKNTVYLQMNSLKPEDTAVYYCAADPLNYEYFCYWGQGTQVTVSS” reads “low polyreactivity”; that for “QVQLQESGGGLVQAGGSQRLSCAASGYIFYFQYMGWYRQATGKEREFVAAISDGANTNYADSVKGRFTISRDNAKNTEYLQMNSLKPEDTAVYYCAVYADENYYFIYWGQGTQVTVSS”, “low polyreactivity”; that for “QVQLQESGGGLVQAGGTLRLSCAASGSFSADEDMGWYRQAQGKESEFVAGISVGGNTNYADSVKGRFTISRENAKNTVYLQINSLKPEDTAVYYCAVLQDVYDALDYWAQGTQVTVSS”, “high polyreactivity”.
Then “QVQLQESGGGLVQAVGSLRLSCAASGNISDYYDMGWYRQAPGKERKIVAGIDFGAITNYADSVKGRFTISRDNAKNTEYLQMSSLKPEDTAVYYCAAGVYDWYAYDYWGQGTQVTVSS”, with “high polyreactivity”; and “QVQLQESGGGLVQEGGSLRLSCAESGNISPQADMGWYRQAPGKERELVASIGTGGTTNYADSVTGRFTISRDNAKNTVYLQMNSLKPDDTAFYYCAAVRYEYNPYDYWGQGTQVTVSS”, with “low polyreactivity”.
